Reference: the supplement of paper PMC9170038

System: MS2 coat protein
Experiment: apparent KD of MS2 coat protein; designed switch direction (-1 OFF switch, 1 ON switch): -1; higher = weaker reporter binding
How it was run: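 Apparent KD, taken as the median over clusters for each design, was obtained by curve-fitting normalised cluster fluorescence. Designed RNA switches had been transcribed on Illumina chips by stalled E. coli RNA polymerase and titrated with SNAP-549-labelled MS2 coat protein, doubling from 0.7 or 1.5 nM to 3 µM.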

[1] = Eterna round: R95, input ligand: microRNA oligo, concentration not stated
[2] = Eterna round: R95, input ligand: FMN 200 uM
[3] = Eterna round: R95, input ligand: none
[4] = input ligand: microRNA oligo, concentration not stated

Sequence	apparent KD of MS2 coat protein [1] [nM]	apparent KD of MS2 coat protein [4] [nM]	apparent KD of MS2 coat protein (input ligand: FMN 200 uM) [nM]	apparent KD of MS2 coat protein (input ligand: none) [nM]	other results
GAGUACUUAGGAUAUACAUGAGGAUCACCCAUGUCUAGGCGGCGCUGGGUCCCUCGCAGUAGAAGGAAGCGCUG [Ceeranat] (puzzle: Exclusion 3)	20.6				
AAUAAACAUGAGGAUCACCCAUGUGAGGAUAUCCAAAUAAAUAAUAAAAUAAAUAAAAGGAGAAGGCACAAUAA [JMF most obvious solution 2] (puzzle: Exclusion 1)	198				apparent KD of MS2 coat protein [2]: 71.7 nM; apparent KD of MS2 coat protein [3]: 190 nM
AAUAACAGAGGAUAUACUGUUUUAUGUAUUUAUUAUUUUGAACAUGAGGAUCACCCAUGUAGAAGGCUGAUUGA [JMF 75] (puzzle: Exclusion 2)	31.7				
CUAUUACGAGGAUAUGAUUUAAAUAACAUGAGGAUCACCCAUGUUUUUACGUUAUUAUGUUUAGAAGGCGUAUUGU [JR_E5_Sub026] (puzzle: Exclusion 5)	43.4				
GUUAGUUAAGGAUAUACAGGGAGCUGCGGCGUCUCGCCGCAACAUGAGGAUCACCCAUGUAGAAGGUGGCCAUU [JL ViennaUCT Enbibi mod 3] (puzzle: Exclusion 2)	471				
UACAUGAGGAUCACCCAUGUUUUGUCGUGUAUGGUAUUUAUCUAGGAUAUCAAUUGUUUUAUUUAUGAGAAGGAGAAUAUUAAU [JMF's solution 56] (Eterna round: R96, puzzle: Exclusion NG 3)		24.8			
GGUUAUUGCAAGGAUAUGCUUUUUUUUGAAAUUGCAGAAGGUGCAACAUGAGGAUCACCCAUGUUGGAUGGGUU [JR_E6_Sub018] (Eterna round: R96, puzzle: Exclusion 6)		161	252	194	
GUCGUGCAGCUUUGCUGUACGAGUACAUGAGGAUCACCCAUGUAGGAUAUGGUACGCUUUGCGUGCCAGAAGGACGUGCGUUGG [salish99_ExNG3_r04_004] (Eterna round: R96, puzzle: Exclusion NG 3)		38.3			
AGCUGUGGCCGAGGAUAUCUAUCUCAAAUAACCGAAAUAUAAUCGGACAUGAGGAUCACCCAUGUAGAGAAGGCGGUCUCAGCA [Eli eng2 - 089] (Eterna round: R96, puzzle: Exclusion NG 2)		11.4			
UUUUUGUGAGGAUAUCAGUAGUAAAUAAAUAAAAUUACUACUGAGAAGGCACAUGAGGAUCACCCAUGUUUUUU [Mat - Exclusion 4 - Mod of Salish - D68] (puzzle: Exclusion 4)	41.8				
AUCGUGUGAGGAUAUCGAUGUUGGACGUCUAGGUCUGAGCGCGAGAAGGCACAUGAGGAUCACCCAUGUAAGGG [jl-ex4-4.24 ViennaUCT mod] (Eterna round: R97, puzzle: Exclusion 4)			220	896	
GAAAAGGUAGGAUAUACUAAAAAAAAGGGUAGAAAAAAAACACAUGAGGAUCACCCAUGUAGAAGGACCAAAAG [salish99_ex2_r3_058] (puzzle: Exclusion 2)	31.8				apparent KD of MS2 coat protein [2]: 48.2 nM; apparent KD of MS2 coat protein [3]: 20.8 nM
UUUAAAUGAGGAUAUAGGAUCUUAGACAUGAGGAUCACCCAUGUGAAAUCAGACCUAGUCCUAGAAGGCGUAUGAC [Eternabot (L1) Solution 100] (Eterna round: R97, puzzle: Exclusion 5)			13.5	12.4	
GACCUAUAGGUAGGAUAUCAUUGCGAUUAGCUAUGAGAAGGACCACAUGAGGAUCACCCAUGUCCUCUAAUUAGCCAUUUGGUC [Fiskers ExNg1 - 8] (Eterna round: R96, puzzle: Exclusion NG 1)		338			
AGAUCACAUGAGGAUCACCCAUGUGAGGAUAUGAUACUAUGUACUUCGGUACAUAGUAUCAGAAGGCAUGUGAA [Ex1-3: 74] (puzzle: Exclusion 1)	42.7				
AAAAGGUGAGGAUAUACAAUGAUCCUCAUAAUAACCCGAAGACAUGAGGAUCACCCAUGUAGAAGGCACAAAUA [Istive] (puzzle: Exclusion 2)	16.5				apparent KD of MS2 coat protein [2]: 33.4 nM; apparent KD of MS2 coat protein [3]: 19.8 nM
UAGAUACAUGAGGAUCACCCAUGUGAGGAUAUGAGAAUGAAAUGAAAUGAAUGAAGAAUCAGAAGGCACAAAGG [JL-ex1-4.31 salish99 mod] (Eterna round: R97, puzzle: Exclusion 1)			238	54	
UUUUAACAUGAGGAUCACCCAUGUGAGGAUAUCGAAAUUUAUAUUAAUAUUAUUUUAACGAGAAGGCACAUUUU [JMF 47] (puzzle: Exclusion 1)	67.2				

Sequence	apparent KD of MS2 coat protein [1] [nM]	apparent KD of MS2 coat protein [4] [nM]	apparent KD of MS2 coat protein (input ligand: FMN 200 uM) [nM]	apparent KD of MS2 coat protein (input ligand: none) [nM]	other results
CUUAUGGUCCAUACCUAGAACAUGAGGAUCACCCAUGUAAUACAUGACACCUACCUUAAGCACAGCUCGUCUUGUAG [Eternabot (Original) Solution 30] (Eterna round: R97, puzzle: Sensor, turn-off variant 1)			48.9	57	
UAUAUAUAGUAAGGAUAUGUAUAUGUUUUAUAAACAGAAGGUACUGACAUGAGGAUCACCCAUGUUUUAGUGUGGGCAUGUAGA [JMF's solution 54] (Eterna round: R96, puzzle: Exclusion NG 1)		44.5			
AAAAGUUUGGAGGAUAUCCAUCCAAACGGAUAAGGAGAAGGCCGGACAUGAGGAUCACCCAUGUGAUUAGGUUA [Isradiri] (puzzle: Exclusion 6)	13.4				
AGCCACAGAGGAUAUACAUACAUCCAGUAGCGUAUAUCGCUACAUGAGGAUCACCCAUGUAGAAGGCUGUGGCA [Omei Ex2 BD B23] (Eterna round: R97, puzzle: Exclusion 2)			86.7	18.4	
CGAUAAAUGACAGGAUAUUACGCUAAUUGGGACCCUUAACCGACAUGAGGAUCACCCAUGUUUUAUAAGAAGGGUCGUUUGUCA [Eternabot solution 47] (Eterna round: R96, puzzle: Exclusion NG 2)		11.2	21	13.2	
GAUUAUGCGAGCUUUAGGGACAUGAGGAUCACCCAUGUUCGUCUUAUUGGUCUAGGUACGCUGACAUACCUAAAUCU [JMF 101] (puzzle: Sensor v3, turn-off variant 1)	32.2				apparent KD of MS2 coat protein [2]: 20.9 nM; apparent KD of MS2 coat protein [3]: 23.7 nM
UAUCGGGACUGAGGAUAUUCGUUCGAACACGAAGAAGAAGGUAGUGUCAGGGACAUGAGGAUCACCCAUGUGAUUUCAGUCCCA [JL ViennaUCT Erinle mod 4] (Eterna round: R96, puzzle: Exclusion NG 1)		96.8	133	139	
UUUAAUUUUUUUUUUUUACAAGCUUUUUGCUCGUCUUAUACAUGAGGAUCACCCAUGUGGGUAGAGAGUAAAUUAUC [JMF 59] (puzzle: Sensor v3, turn-off variant 2)	80.6				apparent KD of MS2 coat protein [2]: 16.7 nM; apparent KD of MS2 coat protein [3]: 16.1 nM
GAUUAACAUGAGGAUCACCCAUGUGAGGAUAUGGACUGGCUCACUUUUCGAUUCCCGUCUAGAAGGCACAUCUU [1986#10] (Eterna round: R97, puzzle: Exclusion 1)			85.9	41.1	
AUCAGCUCGUGAGGAUAUACAUCACUGCUUCGGCAGUGUAUUAAGAUCACAUGAGGAUCACCCAUGUAGAAGGCACGAGCUGAU [ENG2/2-A3] (Eterna round: R96, puzzle: Exclusion NG 2)		31.7	437	38.3	
AUCAGCUCGUCAGGAUAUACAUGAGGAUCACCCAUGUGAUCAAUAGCAGCUUCGGCUGCAUACAUGUAGAAGGGACGAGCUGAU [ENG2/6-B3] (Eterna round: R96, puzzle: Exclusion NG 2)		234	50	821	
AAGAAACAUGAGGAUCACCCAUGUGAGGAUAUGAACCGCCCGGCGUAAGCAAAAUAAAUCAGAAGGCACAAAGG [salish99_ex1_r4_006] (Eterna round: R97, puzzle: Exclusion 1)			38.3	32.2	
UUUUUGUCAGGAUAUGCAUGUUUUUUUUUUUUUUUUUUCAUGCAGAAGGGACAUGAGGAUCACCCAUGUAGUUU [Ex4 - 3 - 10] (puzzle: Exclusion 4)	23.4				apparent KD of MS2 coat protein [2]: 34.3 nM; apparent KD of MS2 coat protein [3]: 37.9 nM
AUUUUGUGAGGAUAUUAGUUGUAGAAAAUUAUUAGUUUAGCUGAGAAGGCACAUGAGGAUCACCCAUGUAAAUC [JR_Ex4_Sub043] (Eterna round: R97, puzzle: Exclusion 4)			26.7	18.6	
CUAGUAUAUCAGGAUAUGAUAUUGUGUAGUAAAUCAGAAGGGAUGACAUGAGGAUCACCCAUGUUAAGGGAUGA [JR_Ex6_Sub047] (Eterna round: R97, puzzle: Exclusion 6)			41.4	54.3	
GUCACUAGAGGAUAUACAAUGGUAUAUGAUCCUAGAGACAAACAUGAGGAUCACCCAUGUAGAAGGCUAGUAAA [Exclusion 2 - 1] (puzzle: Exclusion 2)	153				apparent KD of MS2 coat protein [2]: 32.1 nM; apparent KD of MS2 coat protein [3]: 89.5 nM
CGGUGCUCGUGGAAACAUGAGGAUCACCCAUGUUGAGUUAGCGAGGAUAUCGGUAACACAUAUCACGAGAAGGCGCGAACCAGA [Ex NG3 #31] (Eterna round: R96, puzzle: Exclusion NG 3)		11.9	23.3	16	
CUUUCGUGAGGAUAUCAGUAGUAAAUAAAUAAAAUUACUACUGAGAAGGCACAUGAGGAUCACCCAUGUUCCUC [salish99_ex3_r3_096] (puzzle: Exclusion 4)	23.5				
